The test system of data set [1] is NS5AB peptide substrate NH2-EDVV-(alpha)Abu-CSMSY-COOH.
Data set [2] deals with T1, FITC-NS5AB-1 peptide substrate FITC-Ahx-EDVV-(alpha)Abu-CSMSYTKK-NH2.
T1 chain: XEDVVXCSMSYTKK

In data set [3] the target is T2, NS5AB peptide substrate NH2-EDVV-(alpha)Abu-CSMSY-COOH.
T2 chain: EDVVXCSMSY

Data set [4] has as its target T3, NS5AB-EDANS peptide substrate NH2-EDVV-(alpha)Abu-CSMSYT-Asp(EDANS)-KKK-COOH.
T3 chain: EDVVXCSMSYTDKKK

Like-named read-outs stand apart in the source and are kept apart here.

For “HCV NS3 protease domain (residues Ala1-Ser181 of HCV NS3 protease, C-terminal hexa-histidine tag)”, in data set [1], the Km (as a rule, the substrate concentration at which the rate is half of its maximum) is 25 µM and the catalytic efficiency (kcat/Km) – broadly, the turnover number divided by the Michaelis constant – was determined as 30000 M⁻¹ s⁻¹.

B1: NS3•4A protein with an N-terminal histidine tag (protein)
chain: MSHHHHHHAMAPITAYAQQTRGLLGCIITSLTGRDKNQVEGEVQIVSTATQTFLATCINGVCWTVYHGAGTRTIASPKGPVIQMYTNVDQDLVGWPAPQGSRSLTPCTCGSSDLYLVTRHADVIPVRRRGDSRGSLLSPRPISYLKGSSGGPLLCPAGHAVGLFRAAVCTRGVTKAVDFIPVENLETTMRSPVFTDNSSPPAVPQSFQVAHLHAPTGSGKSTKVPAAYAAQGYKVLVLNPSVAATLGFGAYMSKAHGVDPNIRTGVRTITTGSPITYSTYGKFLADGGCSGGAYDIIICDECHSTDATSILGIGTVLDQAETAGARLVVLATATPPGSVTVSHPNIEEVALSTTGEIPFYGKAIPLEVIKGGRHLIFCHSKKKCDELAAKLVALGINAVAYYRGLDVSVIPTNGDVVVVSTDALMTGFTGDFDSVIDCNTCVTQTVDFSLDPTFTIETTTLPQDAVSRTQRRGRTGRGKPGIYRFVAPGERPSGMFDSSVLCECYDAGCAWYELMPAETTVRLRAYMNTPGLPVCQDHLEFWEGVFTGLTHIDAHFLSQTKQSGENFPYLVAYQATVCARAQAPPPSWDQMWKCLIRLKPTLHGPTPLLYRLGAVQNEVTLTHPITKYIMTCMSADLEVVTSTWVLVGGVLAALAAYCLSTGCVVIVGRIVLSGKPAIIPDREVLYQEFDEMEEC
As to B1, the figures for the Km in data set [2], in data set [3] and in data set [4] were 15 µM, 30 µM and 56 µM, respectively. For the same molecule, the kcat/Km in data set [2] amounted to 1200 M⁻¹ s⁻¹; in data set [3], 7900 M⁻¹ s⁻¹; in data set [4], 1400 M⁻¹ s⁻¹.

Values taken from US20100216161.
